This note sets out measurements from paper PMC11587651, “Increased cytoplasmic expression of PETase enzymes in E. coli” (Microbial Cell Factories, 2024).

Substrate in this data set: CC(=O)Oc1ccc([N+](=O)[O-])cc1
Kind of data set: purified protein. It is filed as biochemical, Pseudideonella sakaiensis. The conditions noted are these: 100 mM potassium phosphate pH 7, 25 °C, 1-20 mM 4-NPA, acetonitrile from substrate stock.

Positions count from the first letter of the chain named. Numbers in names are those of the source.

B1: IsPETase (Pseudideonella sakaiensis) (protein)
chain: AQTNPYARGPNPTAASLEASAGPFTVRSFTVSRPSGYGAGTVYYPTNAGGTVGAIAIVPGYTARQSSIKWWGPRLASHGFVVITIDTNSTLDQPSSRSSQQMAALRQVASLNGTSSSPIYGKVDTARMGVMGWSMGGGGSLISAANNPSLKAAAPQAPWDSSTNFSSVTVPTLIFACENDSIAPVNSSALPIYDSMSRNAKQFLEINGGSHSCANSGNSNQALIGKKGVAWMKRFMDNDTRYSTFACENPNSTRVSDFRTANCS
notes: expressed in E. coli SHuffle T7 Express; IMAC purified; monomeric by SEC
B1: the Michaelis constant (Km) came to 8.16 ± 0.66 mM and the kcat stood at 30.3 ± 1.1 s⁻¹.

B2: IsPETase (Pseudideonella sakaiensis; D186H/N233K/R224Q/R280A/S121E) (protein)
chain: B1 chain with S95E, D160H, R198Q, N207K, R254A
notes: as for B1
Turning to B2, where the note is “FAST-PETase”, the Km turned out to be 11.33 ± 1.11 mM and the kcat came to 45.7 ± 2.3 s⁻¹.

B3: IsPETase (Pseudideonella sakaiensis; D186H/K252M/K95N/M154G/N212K/N233C/N241C/P181V/Q119K/Q182M/R224L/R280A/R90T/S121E/S207R/S213E/S214Y/S282C/S58A/S61V/T270Q) (protein)
chain: AQTNPYARGPNPTAASLEASAGPFTVRSFTVARPVGYGAGTVYYPTNAGGTVGAIAIVPGYTATQSSINWWGPRLASHGFVVITIDTNSTLDKPESRSSQQMAALRQVASLNGTSSSPIYGKVDTARGGVMGWSMGGGGSLISAANNPSLKAAAVMAPWHSSTNFSSVTVPTLIFACENDRIAPVKEYALPIYDSMSLNAKQFLEICGGSHSCACSGNSNQALIGMKGVAWMKRFMDNDTRYSQFACENPNSTAVCDFRTANCS
notes: as for B1
Regarding B3, under “Hot-PETase”, the Km is 9.61 ± 0.91 mM and the kcat was 33.0 ± 1.5 s⁻¹.

In general, Km refers to the substrate concentration at which the rate is half of its maximum. Usually kcat stands for the number of substrate molecules converted per active site and unit of time at saturation.
